Target: T1, ArsR (Escherichia coli) (UniProt P15905)
T1 sequence: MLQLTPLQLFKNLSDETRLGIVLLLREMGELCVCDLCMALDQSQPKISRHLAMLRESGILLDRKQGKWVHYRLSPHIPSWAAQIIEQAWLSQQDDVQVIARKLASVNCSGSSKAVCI
Experiment: SPR
Settings: ±10 nM, HBS-EP pH 7.4, 25 C

[1] = one value stated for all sequences although affinities said to differ, binding inhibited about 55% by 100 uM phenylarsine oxide …
[2] = one value stated for all sequences

Sequence	Kd [1] [nM]	Kd [2] [nM]
CTGCACTTACACATTCGTTAAGTCATATATGTTTTTGACTTA / TAAGTCAAAAACATATATGACTTAACGAATGTGTAAGTGC [CHROML1]	500	
TTAAGTCATATATGTTTTTGACTTA (double strand) [CHROMS1]		500
TTAATCATATGCGTTTTTGGTTA / TAACCAAAAACGCATATGATT [PLASS1]		500
TTAATCATATGCGTTTTTGGTTATGTGTTG / CAACACATAACCAAAAACGCATATGATT [PLASL1]	500	

Reference: patent US20030096275
